This assay has as its target recombinant human prothrombin (Factor II) (human) (UniProt P00734).

In the case of “endoproteinase Lysyl endopeptidase (Lys-C) (tool reagent)”, the Lys-C fragments identified by reverse phase UPLC and mass spectrometry (peptide mapping) worked out at 25 fragments.

These data come from patent US9598687B2.
